Reference: paper PMC11536449
Where two headings read alike, the source gives them in different places.

Experiments:
CmRSM1-GST [1] = target: T1, CmRSM1-GST (Cucumis melo (melon), UniProt A0A1S3CDK8 1-116); test: EMSA
T1 sequence: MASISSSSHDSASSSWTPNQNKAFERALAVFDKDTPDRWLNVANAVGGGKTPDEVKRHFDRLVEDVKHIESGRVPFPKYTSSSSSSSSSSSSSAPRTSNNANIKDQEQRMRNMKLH

CmRSM1-GST [2] = target: T1, CmRSM1-GST; test: EMSA; remark: listed apart in the source

B1: P2 probe (CmBr promoter, MYB and MBS motifs) (dsDNA)
DNA 1: GACAACAAATTTATAAGTAATTGTTCAACCAACTGAAAACGAGAAAAGTAAATATATCT
DNA 2: AGATATATTTACTTTTCTCGTTTTCAGTTGGTTGAACAATTACTTATAAATTTGTTGTC
- binding result (CmRSM1-GST [1]): no binding

B2: P3 probe (CmBr promoter, MRE motif) (dsDNA)
DNA 1: ACTTAGTTTTGAGATCAAATAACTCCTTAGGTTAGTTAATCATTCATTGATTCAATCAA
DNA 2: TTGATTGAATCAATGAATGATTAACTAACCTAAGGAGTTATTTGATCTCAAAACTAAGT
- binding result (CmRSM1-GST [1]): no binding

B3: P1 probe (CmBr promoter, Myb motif) (dsDNA)
DNA 1: ACATTTACTTTTAGATGAAATTGTAACAGTTAGCTAAGTCGTTCACTTCGTTGAAATTA
DNA 2: TAATTTCAACGAAGTGAACGACTTAGCTAACTGTTACAATTTCATCTAAAAGTAAATGT
- binding result (CmRSM1-GST [2]): binds
